The target of this test is T1, human GPR20 (human, UniProt Q99678 1-358).
T1 construct: 358 amino acids, NCBI NP_005284; also called hGPR20; human GPR20 protein (NP_005284)
The test is described as follows: flow cytometry on 293T cells transfected with pcDNA3.1-hGPR20. Here is the method:
The cells were cultured overnight under conditions of 37° C. and 5% CO₂, and thereafter, a cell suspension was prepared. To the obtained cell suspension, each humanized anti-GPR20 antibody was added, and the obtained mixture was left standing at 4° C. for 1 hour. […] The cells were left standing at 4° C. for 1 hour. The cells were washed twice with PBS supplemented with 5% FBS, and then re-suspended in PBS supplemented with 5% FBS, followed by detection using a flow cytometer (BD FACSCant II; BD Biosciences). The data was analyzed using Flowjo (Tree Star, Inc.). […] In the histograms of FIG. 24, the abscissa depicts the fluorescence intensity of PE indicating the amount of the antibody bound, and the ordinate depicts a cell count.

These results are taken from patent US20190225686A1 (Daiichi Sankyo, published 2019).

T1 sequence (Q99678 whole entry): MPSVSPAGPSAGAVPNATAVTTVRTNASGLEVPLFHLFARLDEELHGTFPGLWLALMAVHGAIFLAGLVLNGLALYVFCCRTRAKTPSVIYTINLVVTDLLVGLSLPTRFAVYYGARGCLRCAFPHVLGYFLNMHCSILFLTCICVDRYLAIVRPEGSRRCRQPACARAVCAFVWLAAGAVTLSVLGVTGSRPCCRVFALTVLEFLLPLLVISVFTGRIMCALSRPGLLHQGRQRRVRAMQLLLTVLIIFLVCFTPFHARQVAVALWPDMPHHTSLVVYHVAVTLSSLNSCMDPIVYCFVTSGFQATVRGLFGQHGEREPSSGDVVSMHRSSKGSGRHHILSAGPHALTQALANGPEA

B1: antibody-drug conjugate (7) h046-H4b/L7-ADC2 (antibody, human IgG1, kappa)
heavy: not shown
light: DTQLTQSPSSLSASVGDRVTITCRASKSVSTYIHWYQQKPGKQPKLLIYSAGNLESGVPSRFSGSGSGTDFTLTISSLQPEDFANYYCQQINELPYTFGQGTKVEIKRTVAAPSVFIFPPSDEQLKSGTASVVCLLNNFYPREAKVQWKVDNALQSGNSQESVTEQDSKDSTYSLSSTLTLSKADYEKHKVYACEVTHQGLSSPVTKSFNRGEC
modifications: ADC2 exatecan drug linker on the interchain-disulfide cysteine, thioether bond; position not given; ADC2 exatecan drug linker (maleimide-PEG2-GGFG-NH-CH2CH2CH2-C(=O)-(NH-DX)) on cysteine sulfhydryls of reduced interchain disulfides, thioether bond; positions not given
notes: average drug number 6.1 (E) / 7.6 (F)
On to B1, for which the binding result was “binds”.

B2: humanized h046-H4e/L7 (antibody, human IgG1, kappa)
heavy: not shown
light: DTQLTQSPSSLSASVGDRVTITCRASKSVSTYIHWYQQKPGKQPKLLIYSAGNLESGVPSRFSGSGSGTDFTLTISSLQPEDFANYYCQQINELPYTFGQGTKVEIKRTVAAPSVFIFPPSDEQLKSGTASVVCLLNNFYPREAKVQWKVDNALQSGNSQESVTEQDSKDSTYSLSSTLTLSKADYEKHKVYACEVTHQGLSSPVTKSFNRGEC
notes: Humanized IgG1 / kappa
Consider B2, for which the binding result is on record as “binds”.

B3: antibody-drug conjugate h046-H4e/L7-ADC1 (antibody, human IgG1, kappa)
heavy: not shown
light: DTQLTQSPSSLSASVGDRVTITCRASKSVSTYIHWYQQKPGKQPKLLIYSAGNLESGVPSRFSGSGSGTDFTLTISSLQPEDFANYYCQQINELPYTFGQGTKVEIKRTVAAPSVFIFPPSDEQLKSGTASVVCLLNNFYPREAKVQWKVDNALQSGNSQESVTEQDSKDSTYSLSSTLTLSKADYEKHKVYACEVTHQGLSSPVTKSFNRGEC
modifications: ADC1 exatecan drug linker on the interchain-disulfide cysteine, thioether bond; position not given; ADC1 exatecan drug linker (maleimidocaproyl-GGFG-NH-CH2-O-CH2-C(=O)-(NH-DX)) on cysteine sulfhydryls of reduced interchain disulfides, thioether bond; positions not given
notes: also called antibody-drug conjugate (13); antibody-drug conjugate (14)
Turning to B3, the binding result is reported as “binds”.

B4: humanized h046-H5b/L2 (antibody, human IgG1, kappa, V domains shown)
VH: QVQLVQSGAEVKKPGASVKVSCKASGYTFTSYYISWIRQAPGQGLKYMGFINPGSGHTNYNEKFKGRVTITADKSSSTANMELSSLRSEDTAVYYCARGAGGFLRIITKFDYWGQGTLVTVSS
VL: DIQMTQSPSSLSASVGDRVTITCRASKSVSTYIHWYQQKPGKQPKLLIYSASNLESGVPSRFSGSGSGTDFTLTISSLQPEDFATYYCQQINELPYTFGQGTKVEIKR
notes: Humanized IgG1 / kappa
On to B4, for which the binding result is recorded as “binds”.

B5: antibody-drug conjugate (5) h046-H5b/L2-ADC1 (antibody, human IgG1, kappa, V domains shown)
VH: QVQLVQSGAEVKKPGASVKVSCKASGYTFTSYYISWIRQAPGQGLKYMGFINPGSGHTNYNEKFKGRVTITADKSSSTANMELSSLRSEDTAVYYCARGAGGFLRIITKFDYWGQGTLVTVSS
VL: DIQMTQSPSSLSASVGDRVTITCRASKSVSTYIHWYQQKPGKQPKLLIYSASNLESGVPSRFSGSGSGTDFTLTISSLQPEDFATYYCQQINELPYTFGQGTKVEIKR
modifications: ADC1 exatecan drug linker on the interchain-disulfide cysteine, thioether bond; position not given; ADC1 exatecan drug linker (maleimidocaproyl-GGFG-NH-CH2-O-CH2-C(=O)-(NH-DX)) on cysteine sulfhydryls of reduced interchain disulfides, thioether bond; positions not given
notes: average drug number 5.4 (E) / 7.9 (F)
As for B5, the binding result is on record as “binds”.

B6: antibody-drug conjugate (8) h046-H5b/L2-ADC2 (antibody, human IgG1, kappa, V domains shown)
VH: QVQLVQSGAEVKKPGASVKVSCKASGYTFTSYYISWIRQAPGQGLKYMGFINPGSGHTNYNEKFKGRVTITADKSSSTANMELSSLRSEDTAVYYCARGAGGFLRIITKFDYWGQGTLVTVSS
VL: DIQMTQSPSSLSASVGDRVTITCRASKSVSTYIHWYQQKPGKQPKLLIYSASNLESGVPSRFSGSGSGTDFTLTISSLQPEDFATYYCQQINELPYTFGQGTKVEIKR
modifications: ADC2 exatecan drug linker on the interchain-disulfide cysteine, thioether bond; position not given; ADC2 exatecan drug linker (maleimide-PEG2-GGFG-NH-CH2CH2CH2-C(=O)-(NH-DX)) on cysteine sulfhydryls of reduced interchain disulfides, thioether bond; positions not given
notes: average drug number 6.0 (E) / 7.7 (F)
On to B6, for which the binding result was “binds”.

B7: antibody-drug conjugate (1) 046Ch-ADC2 (antibody, human IgG1)
heavy: not shown
light: DTVLTQSPALAVSLGQRVTISCRASKSVSTYIHWYQQRSGQQPKLLIYSASNLESGVPSRFSGSGSGTDFTLTIDPVEPDDIANYYCQQINELPYTFGAGTKLELKRAVAAPSVFIFPPSDEQLKSGTASVVCLLNNFYPREAKVQWKVDNALQSGNSQESVTEQDSKDSTYSLSSTLTLSKADYEKHKVYACEVTHQGLSSPVTKSFNRGEC
modifications: ADC2 exatecan drug linker on the interchain-disulfide cysteine, thioether bond; position not given; ADC2 exatecan drug linker (maleimide-PEG2-GGFG-NH-CH2CH2CH2-C(=O)-(NH-DX)) on cysteine sulfhydryls of reduced interchain disulfides, thioether bond; positions not given
notes: average drug number per antibody 5.6 (procedure E)
In the case of B7, the binding result was “binds”.

B8: antibody-drug conjugate (2) 046Ch-ADC1 (antibody, human IgG1)
heavy: not shown
light: DTVLTQSPALAVSLGQRVTISCRASKSVSTYIHWYQQRSGQQPKLLIYSASNLESGVPSRFSGSGSGTDFTLTIDPVEPDDIANYYCQQINELPYTFGAGTKLELKRAVAAPSVFIFPPSDEQLKSGTASVVCLLNNFYPREAKVQWKVDNALQSGNSQESVTEQDSKDSTYSLSSTLTLSKADYEKHKVYACEVTHQGLSSPVTKSFNRGEC
modifications: ADC1 exatecan drug linker on the interchain-disulfide cysteine, thioether bond; position not given; ADC1 exatecan drug linker (maleimidocaproyl-GGFG-NH-CH2-O-CH2-C(=O)-(NH-DX)) on cysteine sulfhydryls of reduced interchain disulfides, thioether bond; positions not given
notes: as for B7
For the molecule B8, the binding result was “binds”.
